The chains are these.
B1: AT275 (peptide)
peptide: GGTFISDYSIAMDRIK([AEEA-AEEA-γGlu-C16 diacid])QQDFVNWLLAQR-OH
modifications: N-terminus assumed
SMILES: CC[C@H](C)[C@H](NC(=O)[C@H](CO)NC(=O)[C@H](Cc1ccc(O)cc1)NC(=O)[C@H](CC(=O)O)NC(=O)[C@H](CO)NC(=O)[C@@H](NC(=O)[C@H](Cc1ccccc1)NC(=O)[C@@H](NC(=O)CNC(=O)CN)[C@@H](C)O)[C@@H](C)CC)C(=O)N[C@@H](C)C(=O)N[C@@H](CCSC)C(=O)N[C@@H](CC(=O)O)C(=O)N[C@@H](CCCNC(=N)N)C(=O)N[C@H](C(=O)N[C@@H](CCCCNC(=O)COCCOCCNC(=O)COCCOCCNC(=O)CC[C@H](NC(=O)CCCCCCCCCCCCCCC(=O)O)C(=O)O)C(=O)N[C@@H](CCC(N)=O)C(=O)N[C@@H](CCC(N)=O)C(=O)N[C@@H](CC(=O)O)C(=O)N[C@@H](Cc1ccccc1)C(=O)N[C@H](C(=O)N[C@@H](CC(N)=O)C(=O)N[C@@H](Cc1c[nH]c2ccccc12)C(=O)N[C@@H](CC(C)C)C(=O)N[C@@H](CC(C)C)C(=O)N[C@@H](C)C(=O)N[C@@H](CCC(N)=O)C(=O)N[C@@H](CCCNC(=N)N)C(=O)O)C(C)C)[C@@H](C)CC
B2: AT279 (peptide)
peptide: PGTFISDYSIAMDRIK([AEEA-AEEA-γGlu-C16 diacid])QQDFVNWLLAQR-OH
modifications: N-terminus assumed
SMILES: CC[C@H](C)[C@H](NC(=O)[C@H](CO)NC(=O)[C@H](Cc1ccc(O)cc1)NC(=O)[C@H](CC(=O)O)NC(=O)[C@H](CO)NC(=O)[C@@H](NC(=O)[C@H](Cc1ccccc1)NC(=O)[C@@H](NC(=O)CNC(=O)[C@@H]1CCCN1)[C@@H](C)O)[C@@H](C)CC)C(=O)N[C@@H](C)C(=O)N[C@@H](CCSC)C(=O)N[C@@H](CC(=O)O)C(=O)N[C@@H](CCCNC(=N)N)C(=O)N[C@H](C(=O)N[C@@H](CCCCNC(=O)COCCOCCNC(=O)COCCOCCNC(=O)CC[C@H](NC(=O)CCCCCCCCCCCCCCC(=O)O)C(=O)O)C(=O)N[C@@H](CCC(N)=O)C(=O)N[C@@H](CCC(N)=O)C(=O)N[C@@H](CC(=O)O)C(=O)N[C@@H](Cc1ccccc1)C(=O)N[C@H](C(=O)N[C@@H](CC(N)=O)C(=O)N[C@@H](Cc1c[nH]c2ccccc12)C(=O)N[C@@H](CC(C)C)C(=O)N[C@@H](CC(C)C)C(=O)N[C@@H](C)C(=O)N[C@@H](CCC(N)=O)C(=O)N[C@@H](CCCNC(=N)N)C(=O)O)C(C)C)[C@@H](C)CC
B3: AT273 (peptide)
peptide: PGTFISDYSIAMDRIKQQDFVNWLLAQR
HELM: PEPTIDE1{P.G.T.F.I.S.D.Y.S.I.A.M.D.R.I.K.Q.Q.D.F.V.N.W.L.L.A.Q.R}|PEPTIDE2{[O=C(O)CCCCCCCCCCCCCCC(=O)[*:2]].[gGlu].[O=C(COCCOCCN[*:1])[*:2]]}$PEPTIDE1,PEPTIDE2,16:R3-3:R2$$$V2.0; N-terminus assumed
SMILES: CC[C@H](C)[C@H](NC(=O)[C@H](CO)NC(=O)[C@H](Cc1ccc(O)cc1)NC(=O)[C@H](CC(=O)O)NC(=O)[C@H](CO)NC(=O)[C@@H](NC(=O)[C@H](Cc1ccccc1)NC(=O)[C@@H](NC(=O)CNC(=O)[C@@H]1CCCN1)[C@@H](C)O)[C@@H](C)CC)C(=O)N[C@@H](C)C(=O)N[C@@H](CCSC)C(=O)N[C@@H](CC(=O)O)C(=O)N[C@@H](CCCNC(=N)N)C(=O)N[C@H](C(=O)N[C@@H](CCCCNC(=O)COCCOCCNC(=O)CC[C@H](NC(=O)CCCCCCCCCCCCCCC(=O)O)C(=O)O)C(=O)N[C@@H](CCC(N)=O)C(=O)N[C@@H](CCC(N)=O)C(=O)N[C@@H](CC(=O)O)C(=O)N[C@@H](Cc1ccccc1)C(=O)N[C@H](C(=O)N[C@@H](CC(N)=O)C(=O)N[C@@H](Cc1c[nH]c2ccccc12)C(=O)N[C@@H](CC(C)C)C(=O)N[C@@H](CC(C)C)C(=O)N[C@@H](C)C(=O)N[C@@H](CCC(N)=O)C(=O)N[C@@H](CCCNC(=N)N)C(=O)O)C(C)C)[C@@H](C)CC
B4: AT269 (peptide)
peptide: GGTFISDYSIAMDRIKQQDFVNWLLAQR
HELM: PEPTIDE1{G.G.T.F.I.S.D.Y.S.I.A.M.D.R.I.K.Q.Q.D.F.V.N.W.L.L.A.Q.R}|PEPTIDE2{[O=C(O)CCCCCCCCCCCCCCC(=O)[*:2]].[gGlu].[O=C(COCCOCCN[*:1])[*:2]]}$PEPTIDE1,PEPTIDE2,16:R3-3:R2$$$V2.0; N-terminus assumed
SMILES: CC[C@H](C)[C@H](NC(=O)[C@H](CO)NC(=O)[C@H](Cc1ccc(O)cc1)NC(=O)[C@H](CC(=O)O)NC(=O)[C@H](CO)NC(=O)[C@@H](NC(=O)[C@H](Cc1ccccc1)NC(=O)[C@@H](NC(=O)CNC(=O)CN)[C@@H](C)O)[C@@H](C)CC)C(=O)N[C@@H](C)C(=O)N[C@@H](CCSC)C(=O)N[C@@H](CC(=O)O)C(=O)N[C@@H](CCCNC(=N)N)C(=O)N[C@H](C(=O)N[C@@H](CCCCNC(=O)COCCOCCNC(=O)CC[C@H](NC(=O)CCCCCCCCCCCCCCC(=O)O)C(=O)O)C(=O)N[C@@H](CCC(N)=O)C(=O)N[C@@H](CCC(N)=O)C(=O)N[C@@H](CC(=O)O)C(=O)N[C@@H](Cc1ccccc1)C(=O)N[C@H](C(=O)N[C@@H](CC(N)=O)C(=O)N[C@@H](Cc1c[nH]c2ccccc12)C(=O)N[C@@H](CC(C)C)C(=O)N[C@@H](CC(C)C)C(=O)N[C@@H](C)C(=O)N[C@@H](CCC(N)=O)C(=O)N[C@@H](CCCNC(=N)N)C(=O)O)C(C)C)[C@@H](C)CC
B5: AT261 (peptide)
peptide: PGTFISDYSIAMDRIK(C16 diacid)QQDFVNWLLAQR-OH
modifications: N-terminus assumed
SMILES: CC[C@H](C)[C@H](NC(=O)[C@H](CO)NC(=O)[C@H](Cc1ccc(O)cc1)NC(=O)[C@H](CC(=O)O)NC(=O)[C@H](CO)NC(=O)[C@@H](NC(=O)[C@H](Cc1ccccc1)NC(=O)[C@@H](NC(=O)CNC(=O)[C@@H]1CCCN1)[C@@H](C)O)[C@@H](C)CC)C(=O)N[C@@H](C)C(=O)N[C@@H](CCSC)C(=O)N[C@@H](CC(=O)O)C(=O)N[C@@H](CCCNC(=N)N)C(=O)N[C@H](C(=O)N[C@@H](CCCCNC(=O)CCCCCCCCCCCCCCC(=O)O)C(=O)N[C@@H](CCC(N)=O)C(=O)N[C@@H](CCC(N)=O)C(=O)N[C@@H](CC(=O)O)C(=O)N[C@@H](Cc1ccccc1)C(=O)N[C@H](C(=O)N[C@@H](CC(N)=O)C(=O)N[C@@H](Cc1c[nH]c2ccccc12)C(=O)N[C@@H](CC(C)C)C(=O)N[C@@H](CC(C)C)C(=O)N[C@@H](C)C(=O)N[C@@H](CCC(N)=O)C(=O)N[C@@H](CCCNC(=N)N)C(=O)O)C(C)C)[C@@H](C)CC
B6: AT271 (peptide)
peptide: SGTFISDYSIAMDRIKQQDFVNWLLAQR
HELM: PEPTIDE1{S.G.T.F.I.S.D.Y.S.I.A.M.D.R.I.K.Q.Q.D.F.V.N.W.L.L.A.Q.R}|PEPTIDE2{[O=C(O)CCCCCCCCCCCCCCC(=O)[*:2]].[gGlu].[O=C(COCCOCCN[*:1])[*:2]]}$PEPTIDE1,PEPTIDE2,16:R3-3:R2$$$V2.0; N-terminus assumed
SMILES: CC[C@H](C)[C@H](NC(=O)[C@H](CO)NC(=O)[C@H](Cc1ccc(O)cc1)NC(=O)[C@H](CC(=O)O)NC(=O)[C@H](CO)NC(=O)[C@@H](NC(=O)[C@H](Cc1ccccc1)NC(=O)[C@@H](NC(=O)CNC(=O)[C@@H](N)CO)[C@@H](C)O)[C@@H](C)CC)C(=O)N[C@@H](C)C(=O)N[C@@H](CCSC)C(=O)N[C@@H](CC(=O)O)C(=O)N[C@@H](CCCNC(=N)N)C(=O)N[C@H](C(=O)N[C@@H](CCCCNC(=O)COCCOCCNC(=O)CC[C@H](NC(=O)CCCCCCCCCCCCCCC(=O)O)C(=O)O)C(=O)N[C@@H](CCC(N)=O)C(=O)N[C@@H](CCC(N)=O)C(=O)N[C@@H](CC(=O)O)C(=O)N[C@@H](Cc1ccccc1)C(=O)N[C@H](C(=O)N[C@@H](CC(N)=O)C(=O)N[C@@H](Cc1c[nH]c2ccccc12)C(=O)N[C@@H](CC(C)C)C(=O)N[C@@H](CC(C)C)C(=O)N[C@@H](C)C(=O)N[C@@H](CCC(N)=O)C(=O)N[C@@H](CCCNC(=N)N)C(=O)O)C(C)C)[C@@H](C)CC

The values that follow come from patent US20220025010A1 (ANTAG THERAPEUTICS, published 2022).

*1 amine or outer side, *2 acyl side, *3 side chain or, on linkers, in order; H or OH if unused. Where no end group is shown, it is not given here. Side-chain parts run from the residue outwards. The star is where a group is joined. C16 diacid = O=C(O)CCCCCCCCCCCCCCC(=O)*; γGlu = O=C(O)[C@H](CCC(=O)[*:2])N[*:1]; AEEA = NCCOCCOCC(=O)O

The target in this assay is T1, human GIP receptor (human, UniProt P48546 22-466).
T1 sequence (looked up): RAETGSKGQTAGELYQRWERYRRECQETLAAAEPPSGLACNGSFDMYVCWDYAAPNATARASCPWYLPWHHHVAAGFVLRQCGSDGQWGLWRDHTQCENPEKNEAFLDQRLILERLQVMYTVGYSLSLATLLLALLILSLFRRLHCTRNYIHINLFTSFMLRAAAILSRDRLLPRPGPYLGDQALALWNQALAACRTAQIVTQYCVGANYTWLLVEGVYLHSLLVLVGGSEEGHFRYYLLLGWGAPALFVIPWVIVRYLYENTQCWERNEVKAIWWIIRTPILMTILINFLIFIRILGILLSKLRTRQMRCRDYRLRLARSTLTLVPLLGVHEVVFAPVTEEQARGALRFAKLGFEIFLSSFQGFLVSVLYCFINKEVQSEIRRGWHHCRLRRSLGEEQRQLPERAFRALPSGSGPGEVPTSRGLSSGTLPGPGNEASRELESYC
Kind of assay: cell-based or functional assay.
B1: the “CisBio cAMP agonism % Efficacy” value worked out at 5%, the “CisBio cAMP antagonism % inhib” value amounted to 66%, the “CisBio cAMP antagonism IC50” value was found to be 126 nM and the “CisBio cAMP antagonism pIC50” value stood at 6.9. Also, the “DiscoveRx cAMP agonism Emax” value is 5, the “DiscoveRx cAMP antagonism IC50” value was determined as 43 nM and the “DiscoveRx cAMP antagonism log IC50” value is -7.4 log M.
On to B2, for which the “CisBio cAMP agonism % Efficacy” value turned out to be 14%, the “CisBio cAMP antagonism % inhib” value was 81%, the “CisBio cAMP antagonism IC50” value is 159 nM and the “CisBio cAMP antagonism pIC50” value amounted to 6.8. For the same molecule, the “DiscoveRx cAMP agonism Emax” value was 17, the “DiscoveRx cAMP antagonism IC50” value worked out at 19 nM and the “DiscoveRx cAMP antagonism log IC50” value is -7.7 log M.
On to B3, for which the “CisBio cAMP agonism % Efficacy” value was 0%, the “DiscoveRx cAMP agonism Emax” value came to 35, the “DiscoveRx cAMP antagonism IC50” value was determined as 634 nM and the “DiscoveRx cAMP antagonism log IC50” value is -6.2 log M.
For the molecule B4, the “CisBio cAMP agonism % Efficacy” value was 0%, the “DiscoveRx cAMP agonism Emax” value worked out at 12, the “DiscoveRx cAMP antagonism IC50” value is 91 nM and the “DiscoveRx cAMP antagonism log IC50” value is -7 log M.
B5: the “CisBio cAMP agonism % Efficacy” value is 0%, the “CisBio cAMP antagonism % inhib” value came to 62%, the “CisBio cAMP antagonism IC50” value was found to be 200 nM and the “CisBio cAMP antagonism pIC50” value was 6.7. In addition, the “DiscoveRx cAMP agonism Emax” value was found to be 24, the “DiscoveRx cAMP antagonism IC50” value came to 46 nM and the “DiscoveRx cAMP antagonism log IC50” value is -7.3 log M.
As to B6, the “CisBio cAMP agonism % Efficacy” value came to 2%, the “CisBio cAMP antagonism % inhib” value is 73%, the “CisBio cAMP antagonism IC50” value was 85.8 nM and the “CisBio cAMP antagonism pIC50” value turned out to be 7.1. Besides, the “DiscoveRx cAMP agonism Emax” value amounted to 9, the “DiscoveRx cAMP antagonism IC50” value was determined as 71 nM and the “DiscoveRx cAMP antagonism log IC50” value is -7.2 log M.
